Consider 17 molecules from patent US20100216715A1 (Novo Nordisk, published 2010).

First the molecules themselves.
T1: human beta-Klotho (human, UniProt Q86Z14 1-1044)
T1 sequence (looked up): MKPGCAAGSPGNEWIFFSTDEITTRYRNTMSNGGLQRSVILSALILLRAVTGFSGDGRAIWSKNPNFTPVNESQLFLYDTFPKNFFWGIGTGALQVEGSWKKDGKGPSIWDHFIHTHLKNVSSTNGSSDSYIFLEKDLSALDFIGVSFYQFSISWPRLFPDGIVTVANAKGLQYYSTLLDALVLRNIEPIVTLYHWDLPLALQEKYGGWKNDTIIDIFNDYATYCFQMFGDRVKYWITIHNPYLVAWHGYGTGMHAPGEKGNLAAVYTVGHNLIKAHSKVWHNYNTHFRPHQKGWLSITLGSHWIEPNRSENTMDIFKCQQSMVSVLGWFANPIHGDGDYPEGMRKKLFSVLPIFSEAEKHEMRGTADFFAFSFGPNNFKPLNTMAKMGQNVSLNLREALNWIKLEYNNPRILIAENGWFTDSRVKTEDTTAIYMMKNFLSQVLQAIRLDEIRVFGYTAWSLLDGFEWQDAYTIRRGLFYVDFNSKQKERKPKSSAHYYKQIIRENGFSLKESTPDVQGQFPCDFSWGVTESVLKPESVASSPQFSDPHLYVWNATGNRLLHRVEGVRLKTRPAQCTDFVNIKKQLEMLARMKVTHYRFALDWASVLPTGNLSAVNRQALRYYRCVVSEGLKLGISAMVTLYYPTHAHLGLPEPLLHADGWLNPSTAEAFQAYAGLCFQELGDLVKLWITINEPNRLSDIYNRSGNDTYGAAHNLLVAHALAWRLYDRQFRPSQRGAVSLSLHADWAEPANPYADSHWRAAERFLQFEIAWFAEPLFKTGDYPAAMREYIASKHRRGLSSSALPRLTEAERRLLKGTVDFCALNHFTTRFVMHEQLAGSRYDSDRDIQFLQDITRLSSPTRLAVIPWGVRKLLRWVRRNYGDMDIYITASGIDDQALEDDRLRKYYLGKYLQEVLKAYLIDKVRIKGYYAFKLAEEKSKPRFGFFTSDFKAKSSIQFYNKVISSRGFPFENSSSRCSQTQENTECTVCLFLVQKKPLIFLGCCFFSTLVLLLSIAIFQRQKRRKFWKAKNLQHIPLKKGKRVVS

B1: (K56R, K59R, K69R, K122R, L166F, S167G, M168L, 169aT, P171L, S172E, Q173A, G174V, Y179F, A180E, S181R) Gly-FGF21 (ligand)
chain: GHPIPDSSPLLQFGGQVRQRYLYTDDAQQTEAHLEIREDGTVGGAADQSPESLLQLRALRPGVIQILGVRTSRFLCQRPDGALYGSLHFDPEACSFRELLLEDGYNVYQSEAHGLPLHLPGNRSPHRDPAPRGPARFLPLPGLPPALPEPPGILAPQPPDVGSSDPFGLVTGLEAVRSPSFER
B2: (K56R, 59R, 69R, 122R, 166F, 167G, 168L, 169aT, 171L, 172E, 173A, 174V, 179F, 180E, 181R) Gly-FGF21 derivative of Example 49 (ligand)
chain: GHPIPDSSPLLQFGGQVRQRYLYTDDAQQTEAHLEIREDGTVGGAADQSPESLLQLRALRPGVIQILGVRTSRFLCQRPDGALYGSLHFDPEACSFRELLLEDGYNVYQSEAHGLPLHLPGNRSPHRDPAPRGPARFLPLPGLPPALPEPPGILAPQPPDVGSSDPFGLVTGLEAVRSPSFER
modifications: N-alpha-1-[2-(2-{2-[2-(2-{2-[(S)-4-carboxy-4-(17-carboxy-heptadecanoylamino)-butyrylamino]-ethoxy}-ethoxy)-acetylamino]-ethoxy}-ethoxy)-acetyl] on the N-terminal alpha amino group
B3: Met-FGF21 (ligand)
chain: MHPIPDSSPLLQFGGQVRQRYLYTDDAQQTEAHLEIREDGTVGGAADQSPESLLQLKALKPGVIQILGVKTSRFLCQRPDGALYGSLHFDPEACSFRELLLEDGYNVYQSEAHGLPLHLPGNKSPHRDPAPRGPARFLPLPGLPPALPEPPGILAPQPPDVGSSDPLSMVGPSQGRSPSYAS
B4: (K56R, K59R, K69R, K122R) Gly-FGF21 derivative of Example 53 (ligand)
chain: GHPIPDSSPLLQFGGQVRQRYLYTDDAQQTEAHLEIREDGTVGGAADQSPESLLQLRALRPGVIQILGVRTSRFLCQRPDGALYGSLHFDPEACSFRELLLEDGYNVYQSEAHGLPLHLPGNRSPHRDPAPRGPARFLPLPGLPPALPEPPGILAPQPPDVGSSDPLSMVGPSQGRSPSYAS
modifications: N-alpha-1-(2-{2-[2-(16-1H-tetrazol-5-yl-hexadecanoylamino)-ethoxy]-ethoxy}-acetyl) on the N-terminal alpha amino group
B5: (K56R, K59R, K69R, K122R) Gly-FGF21 (ligand)
chain: GHPIPDSSPLLQFGGQVRQRYLYTDDAQQTEAHLEIREDGTVGGAADQSPESLLQLRALRPGVIQILGVRTSRFLCQRPDGALYGSLHFDPEACSFRELLLEDGYNVYQSEAHGLPLHLPGNRSPHRDPAPRGPARFLPLPGLPPALPEPPGILAPQPPDVGSSDPLSMVGPSQGRSPSYAS
B6: (K56R, K59R, K69R, K122R) Gly-FGF21 derivative of Example 54 (ligand)
chain: GHPIPDSSPLLQFGGQVRQRYLYTDDAQQTEAHLEIREDGTVGGAADQSPESLLQLRALRPGVIQILGVRTSRFLCQRPDGALYGSLHFDPEACSFRELLLEDGYNVYQSEAHGLPLHLPGNRSPHRDPAPRGPARFLPLPGLPPALPEPPGILAPQPPDVGSSDPLSMVGPSQGRSPSYAS
modifications: N-alpha1-[4-(16-1H-tetrazol-5-yl-hexadecanoylsulfamoyl)-butyryl] on the N-terminal alpha amino group
B7: (S71C) Gly-FGF21 (ligand)
chain: GHPIPDSSPLLQFGGQVRQRYLYTDDAQQTEAHLEIREDGTVGGAADQSPESLLQLKALKPGVIQILGVKTCRFLCQRPDGALYGSLHFDPEACSFRELLLEDGYNVYQSEAHGLPLHLPGNKSPHRDPAPRGPARFLPLPGLPPALPEPPGILAPQPPDVGSSDPLSMVGPSQGRSPSYAS
B8: (K56R, 59R, 69R, 122R, 168L) Gly-FGF21 derivative of Example 48 (ligand)
chain: GHPIPDSSPLLQFGGQVRQRYLYTDDAQQTEAHLEIREDGTVGGAADQSPESLLQLRALRPGVIQILGVRTSRFLCQRPDGALYGSLHFDPEACSFRELLLEDGYNVYQSEAHGLPLHLPGNRSPHRDPAPRGPARFLPLPGLPPALPEPPGILAPQPPDVGSSDPLSLVGPSQGRSPSYAS
modifications: N-alpha-1-[2-(2-{2-[2-(2-{2-[(S)-4-carboxy-4-(17-carboxy-heptadecanoylamino)-butyrylamino]-ethoxy}-ethoxy)-acetylamino]-ethoxy}-ethoxy)-acetyl] on the N-terminal alpha amino group
B9: (K56R, K59R, K69R, K122R) Gly-FGF21 derivative of Example 46 (ligand)
chain: GHPIPDSSPLLQFGGQVRQRYLYTDDAQQTEAHLEIREDGTVGGAADQSPESLLQLRALRPGVIQILGVRTSRFLCQRPDGALYGSLHFDPEACSFRELLLEDGYNVYQSEAHGLPLHLPGNRSPHRDPAPRGPARFLPLPGLPPALPEPPGILAPQPPDVGSSDPLSMVGPSQGRSPSYAS
modifications: N-alpha-1-[2-(2-{2-[2-(2-{2-[(S)-4-carboxy-4-(17-carboxy-heptadecanoylamino)-butyrylamino]-ethoxy}-ethoxy)-acetylamino]-ethoxy}-ethoxy)-acetyl] on the N-terminal alpha amino group
B10: (K56R, K59R, K69R, K122R) EEAEAGGAGGSGGS-FGF21 (ligand)
chain: EEAEAGGAGGSGGSHPIPDSSPLLQFGGQVRQRYLYTDDAQQTEAHLEIREDGTVGGAADQSPESLLQLRALRPGVIQILGVRTSRFLCQRPDGALYGSLHFDPEACSFRELLLEDGYNVYQSEAHGLPLHLPGNRSPHRDPAPRGPARFLPLPGLPPALPEPPGILAPQPPDVGSSDPLSMVGPSQGRSPSYAS
B11: (A26E, K56R, K59R, K69R, D102T, N121Q, K122R, Y179F, A180E, S181R) Gly-FGF21 (ligand)
chain: GHPIPDSSPLLQFGGQVRQRYLYTDDEQQTEAHLEIREDGTVGGAADQSPESLLQLRALRPGVIQILGVRTSRFLCQRPDGALYGSLHFDPEACSFRELLLETGYNVYQSEAHGLPLHLPGQRSPHRDPAPRGPARFLPLPGLPPALPEPPGILAPQPPDVGSSDPLSMVGPSQGRSPSFER
B12: (Q28R, K56R, K59R, K69R, D102T, N121Q, K122R, M168L, Y179F, A180E, S181R) Gly-FGF21 (ligand)
chain: GHPIPDSSPLLQFGGQVRQRYLYTDDAQRTEAHLEIREDGTVGGAADQSPESLLQLRALRPGVIQILGVRTSRFLCQRPDGALYGSLHFDPEACSFRELLLETGYNVYQSEAHGLPLHLPGQRSPHRDPAPRGPARFLPLPGLPPALPEPPGILAPQPPDVGSSDPLSLVGPSQGRSPSFER
B13: (Q28R, K56R, K59R, K69R, D102T, N121Q, K122R, L166F, S167G, M168L, G170T) Gly-FGF21 (ligand)
chain: GHPIPDSSPLLQFGGQVRQRYLYTDDAQRTEAHLEIREDGTVGGAADQSPESLLQLRALRPGVIQILGVRTSRFLCQRPDGALYGSLHFDPEACSFRELLLETGYNVYQSEAHGLPLHLPGQRSPHRDPAPRGPARFLPLPGLPPALPEPPGILAPQPPDVGSSDPFGLVTPSQGRSPSYAS
B14: [28R, K56R, 59R, 69R, 102T, 121Q, 122R, 168L, 179F, 180E, 181R] Gly-FGF21 derivative of Example 47 (ligand)
chain: GHPIPDSSPLLQFGGQVRQRYLYTDDAQRTEAHLEIREDGTVGGAADQSPESLLQLRALRPGVIQILGVRTSRFLCQRPDGALYGSLHFDPEACSFRELLLETGYNVYQSEAHGLPLHLPGQRSPHRDPAPRGPARFLPLPGLPPALPEPPGILAPQPPDVGSSDPLSLVGPSQGRSPSFER
modifications: N-alpha-1-[2-(2-{2-[2-(2-{2-[(S)-4-carboxy-4-(17-carboxy-heptadecanoylamino)-butyrylamino]-ethoxy}-ethoxy)-acetylamino]-ethoxy}-ethoxy)-acetyl] on the N-terminal alpha amino group
B15: (Q28R, K56R, K59R, K69R, D102T, N121Q, K122R, D159E, M168L, G174A, Y179F) Gly-FGF21 (ligand)
chain: GHPIPDSSPLLQFGGQVRQRYLYTDDAQRTEAHLEIREDGTVGGAADQSPESLLQLRALRPGVIQILGVRTSRFLCQRPDGALYGSLHFDPEACSFRELLLETGYNVYQSEAHGLPLHLPGQRSPHRDPAPRGPARFLPLPGLPPALPEPPGILAPQPPEVGSSDPLSLVGPSQARSPSFAS
B16: (Q27E, K56R, K59R, K69R, D102T, N121Q, K122R, Y179F, A180E, S181R) Gly-FGF21 (ligand)
chain: GHPIPDSSPLLQFGGQVRQRYLYTDDAEQTEAHLEIREDGTVGGAADQSPESLLQLRALRPGVIQILGVRTSRFLCQRPDGALYGSLHFDPEACSFRELLLETGYNVYQSEAHGLPLHLPGQRSPHRDPAPRGPARFLPLPGLPPALPEPPGILAPQPPDVGSSDPLSMVGPSQGRSPSFER

The experiment concerns the target T1, human beta-Klotho. The experiment is described as follows: cell-based or functional assay.
With “(P143V, A145E, L146E, 148aD, P149L, P150R, I152H, 153aE, 153bS, 153cD, 153dM, A154F, P155S, Q156S, P158L, D159E, V160T, G161D, S163M, L166F, S167G, M168L, 169aT, P171L, S172E, Q173A, G174V, Y179F, A180E, S181K) Met-FGF21 (ligand)”, the pERK-HEK293-Beta-klotho without HSA [EC50 (nM)] Median Value worked out at 9.5 nM.

As for B1, the “pERK-HEK293-Beta-klotho without HSA [EC50 (nM)] Median Value” (from here on “pERK-HEK293-Beta-klotho without HSA”) amounted to 3.3 nM. Next, B2: 1.2 nM. Turning to B3, the “pERK-HEK293-Beta-klotho without HSA” value was 1.6 nM. Next, B4: 6.4 nM; B5: 7.4 nM; B6: 4.2 nM. With B7 the figure was 2.5 nM. With B8 the figure was 4.6 nM; with B9, 3.9 nM. B10: the “pERK-HEK293-Beta-klotho without HSA” value turned out to be 2 nM. Next, B11: 44 nM; B12: 29 nM. On to B13, for which the “pERK-HEK293-Beta-klotho without HSA” value was determined as 1 nM. Consider B14, for which the “pERK-HEK293-Beta-klotho without HSA” value turned out to be 10 nM.

As to B15, the “pERK-HEK293-Beta-klotho without HSA” value turned out to be 15 nM. Next, B16: 36 nM.
